According to paper PMC11364227:

Target: SARS-CoV-2 prototype-Beta RBD-dimer PB (two truncated RBDs, 329-537, in tandem) (SARS-CoV-2 (prototype) | SARS-CoV-2 (Beta variant)) (UniProt P0DTC2)
Assay: SPR

Substance	Kd
XGv347	0.2 nM
S2H97	1.6 nM
C022	5.1 nM
S309	7.6 nM
CR3022	293 nM
SA55	6.6 nM
S2K146	4 nM
